Laboratory results from the DeepSol protein solubility set.

Assay: soluble on expression in E. coli; label from the status in PepcDB or PDB records

Sequence | soluble on expression in E. coli
MGSDKIHHHHHHMTKVKLNFNKPSNVFNRNIFEILTNYDNFTEVHYGGGSSGKSHGVIQKVVLKALQDWKYPRRILWLRKVQSTIKDSLFEDVKDCLINFGIWDMCLWNKTDNKVELPNGAVFLFKGLDNPEKIKSIKGISDIVMEEASEFTLNDYTQLTLRLRERKHVNKQIFLMFNPVSKLNWVYKYFFEHGEPMENVMIRQSSYRDNKFLDEMTRQNLELLANRNPAYYKIYALGEFATLDKMVFPKYEKRLINKDELRHLPSYFGLDFGYVNDPSAFIHSKIDVKKKKLYIIEEYVKQGMLNDEIANVIKQLGYAKEEITADSAEQKSIAELRNLGLKRILPTKKGKGSVVQGLQFLMQFEIIVDERCFKTIEEFDNYTWQKDKDTGEYTNEPVDTYNHCIDSLRYSVERFYRPVRKRTNVSSKVDTIKSLGL | not soluble
MSEGWNIAILGATGAVGEALLETLAERQFPVGEIYALARHESAGEHLRFGGKSVIVQDAADFDWTQAQLAFFVAGAEASAAWIDDATNAGCLVIDSSGLFALEPDVPLVVPEVNPYVLADYRNRNVIAVADSLTSQLLAALKPLIDQGGLSRIAVTSMLSASAQGKKAVDALAGQSAKLLNGIPIDEDDFFGRQLAFNMLPLLPDREGSVRQERRIVDEVRKILQDDGVMISASVVQSPVFYGHAQMVSFEALRPLAAEEAREAFSRGEDIVLSEETDYPTQVGDASGNPQLSIGCVHNDYGMPEQIQFWSVADNVRFGGALMAVKIAEKLVQEYLY | not soluble
MFYYVEILGTLPEMGKAEVEALAELGVGNVEKVDYLLVSGSVKHIGVFERLGLAHEYGLLLYEGDDIKDILDFAKGLEWRNIINGTFAVRRERMRNCMHEVNDLDKKIGGIIHSQGLRVNLSRPDTVVRVYCGNKIWLGIRIREFKGKEFEDRKADRRPFSRPIALPPRIARAMVNLTKATREVLDPFMGTGGMLIEAGLIGLKVYGLDIREDMVEGAKINLEYYGIRDYVVKVGDATKIEEVFPGKTFEAVATDPPYGNSTTLPMDRNELYKRSLESIHSVLEGRLAIAFPADFDARDVAESIGFKVLGRFYQRVHSSLSRYFYVMEV | soluble
MPKRRYNPSANEEEKIPIVEKLYRENQESDFLGGGFCDDDDEVQERREQISEMRQKREEAAHNLIQAPENCEKCDKGLMDSWLWERYNCAVCDACRDDKGEHKLLARTEVKNTYLLKDCDLDLRKPKLRYWAKKNPHNPRYGDMKLYLKCQIETRVLEVHGSWEDLELKKELREQSKEVRSEKRFEKKLKDLRQQIRGTSGVKVDFGRPHTHEFGKETHVEEDTWRRTCITCEYEEVFEKL | not soluble
MGSDKIHHHHHHMKRTVTVKLQPSKAQEETLKELAIISSKAWNKVNYLRRQEFFEGKPVDFLKTEKIVYEEFKSEIGSATVQQICRKNADAWRSFFSLIRSKRNGELPKWFKPKPPEYVKEGGLIILRNDQYKIEGNKLILKGLGKFKRLEVQFKGRIHLKGKQGKLEITYDPIKRKWYAHISYTVKEKLYGGEWVEVPRQPLGNLSAGIDLGVNNLMAVYVENGESFLVNGRPLKSIDFYWRERIADYQSKLNKSGAKKSRKLSRMHEKAKLQAKHYINTAVRQTVERLYHLGVSRIVVGYPKGISRNSNRGKKQNYLLSHVWRFNYVIKRLREVAEEYGIQVLIVDEAFTSKLCPVCGKPHKGQGLFEDYLSVPRRGLPLMPTWLELSTF | not soluble
MGSDKIHHHHHHLTDMLAPRVVARLRGVTKSFDGTTVVRNVDLDFRSGEVHVLAGENGAGKSTLTKLLAGIHQPDHGTVEINGQMGPFDVKSSRTAGVTLVHQELLIAPNLTVADNLAMGQENRNRFRGLDRTATLENARAQLAHIGATFPVTMRAEELTVADHQQIEIARALAQKPKILILDEPTSALSSAETERLLRIVDELRRNGTSVIYITHRMEEIEALADIVSIMRDGSLVETMPKAEATPDAIVLRMVGRKIDSLFTAERPEPGRVVLRVEQLTNGKDIGPIDLDVRAGEVVGIGGLIGSGRSEFVRLIFGADRASSGTVSVDGSPVNVTGPGSAVRAGIALLPESRKTQGLVLDQSIAANIVLASLGHISSAGVVTPAAVKRVASKAQKRLGIKSASLGQEVTTLSGGNQQKVLFAKWLETKPKVLILDEPTRGVDVGAKAEIYQIINECAHAGVAVLVISSELPELIGLSSRVHVMREGRLVAEIDAQSLTEEAVMNHAFGIAQATQA | not soluble
MSPGPQSGGQERGSMERKMVELEDTGLTFATEVDLERLQALAAEWLQVIGEDPGREGLLKTPERVAKAWAFLTRGYRQRLEEVVGGAVFPAEGSEMVVVKGVEFYSMCEHHLLPFFGKVHIGYIPDGKILGLSKFARIVDMFARRLQVQERLAVQIAEAIQEVLEPQGVGVVVEGVHLCMMMRGVEKQHSRTVTSAMLGVFRENQKTREEFLSHLRDGTA | soluble
MSNANQKITTFLMFEGKAEEAMNFYTSLFDQSEIVSISRYDENGPGKEGTVIHATFTLNGQEFMCIDSYVNHNFTFTPAMSLYVTCETEEEIDTVFHKLAQDGAILMPLGSYPFSKKFGWLNDKYGVSWQLTLAE | soluble
MKTGDKAGAIAAAQYFVEVIEYSMHTSTTDLLEKYSYEHCDRCSHYIEVINTRQEKNVLPKSVVINSSQEGHPEFRGEGAIIWRVPMHLQISEQWEAGKEPRKEEVKVSFSVAIDNGHWVLVGVGEED | not soluble
MPADPRNAGKDKGNLQMELQNLLTSARIRKMEYEAIVEELEEDELKYDLFEYQDYLENYIMPYVERAYKNGSKELIGMAEEVKSIFEEIIDMIKARIEKK | not soluble
MDHRSSSPFLQILPPDEVEKLLHSMKQAKEELETLGNGDESLFLCPQKITHCSTVSWKPNNVLAPALPKQNALNFNGNEQLSHENEAHSEIPSLLTFQEKGEEDTVEVTRDNYNEIDTVEDFRSIEPALENSPKILVDDSMEATQTFIEETNDFQNDTVHSLDGTLEIENRRLCLLGMLVEMKEICKSVKVDLLLNLIPDLAPVAVQACNSASSLSRKEAIYCLVYMVKQVGAEEMEKYLEPLTTAKRTLLQIYIDRSSKDDSK | not soluble
MAHHHHHHMMSVANAAYLPLIGSCLTAGEQTALQCSLPLLSQRYRGTPMQLWGKVTGIKANYWVAQAFPNGEFAPAVSFYSIDGGSTWTMLSELTEEQAALCEALRGPYQGVPSYEYMMRQDLPAETDEAAVTMPTPDDILKKAEDDIAAARAASDANSDADESEGDDEEQDDEEEEDEEDAGAVLAPRKRMAKFRILSVTEAMRLAHFVQLHDADCRLTVRGMYVLQDGAAVGARNSTFGGQPLHNAKKPSCYVKMARAGTEERNRILYGLTYNPHTDYLMPITDDAPAGVWSVKYNATANVVSVRNLFYEGSLFWYRPGTLECGQVYCGPGERNFDLCFML | soluble
MRKNVSDLEYTTWFAPVKPLGVQEGSLLLGVRNSFTKDWFRDHYLELLLAALRSLGAEHPQVEFQVLPAAQDALLLPNDPPPAPEAAAPTPKTKAAPTPPPSTPGDNRKTLNPKYTFENFVVGPNNNLAHAAALAVAESPGKAYNPLFIYGDVGLGKTHLMHAVGHYLAERFPEKRIEYVSTETFTNELINAIRDDKTTQFRNRYRSVDLLLVDDIQFLAGKERTQEEFFHTFNALYESNKQIILSSDRPPKDIQTLEGRLRSRFEWGLITDIQSPEYETRVAILKMNAEQGHITIPQEVLELIARQVTSNIRELEGALMRVVAFASLNNVPFSRAAAAKALSNVFAPQEAKVEMTDVLRQVAAHYGTTPDLIRGSGRARDIVVPRQVAQYLIRALTDHSLPEIGQFFGRDHSTVMHAVSKITEQMGKDPELAATVNTLRNRIQGKEEEEEVGALEHHHHHH | not soluble
MGSDKIHHHHHHLTLSIEHLTGGYTQTPVIKDINFEVKNGELLGLIGLNGAGKSTTINHVIGLMRPMKGKIILDEIDLEQNPTQYKTKLAYIPELPILYDELTLKEHIELTIKAYEMNSEKAWQQAHKLLKTFRLENKLDWFPANFSKGMRQKVMIVCAFITDAELFVVDEPFLGLDPLAIDDLLKVINEKKQQGASILMSTHVLDTAEKYCDRFALLNEGELKAVGTLADFQKQFNLPNSSLNDIYLTIAKGERDE | not soluble
GPGSMVLVLVVGDTWVPQRASGVPEVFCKMFSPGRIHKLLITGGVGSKEMYDYLRTIAPEVHCVTSSVDRQWADHMPESVVLTVEGLKLGLIHGHQVPVGDKDSLAAVQRELDVDVLVSGSTHQSKYFEFDSHLFVNPGSLSGADTEYDVNVVPSFMLLDIQDKSVVTFIYQFHPEDETGGGGTATEDLAAAGMVPGLRIKKKEWAKE | not soluble
VACMIPAPAYHPDPRFQALGGEFADPVEPADFPETVLRFRNDRAAATVGLETLDDRAWLRHFGRFEPLPDNQTRPLAMRYHGHQFRVYNPDLGDGRGFLFGQLREAGTGRLLDLATKGSGQTPWSRAGDGRLTLKGGVREILAASFLEALGVPTSRWCGL | soluble
VPKVTFTVEKGSNEKHLAVLVKYEGDTMAEVELREHGSDEWVAMTKGEGGVWTFDSEEPLQGPFNFRFLTEKGMKNVFDDVVPEKYTIGATYAPEE | soluble
MGSDKIHHHHHHMNILAPVSSVKEAEQLIAHGADELYCGIGLGALKNRPGNTDREIWINRRESGNANIPDLESLSLLVDHAHAQGKKVYLTLNQPGYAQDLYGEILAFVREVKKSCQVDAFIVADPGLIRMLIGKEPDMVIHVSSLAGVLNSSAVLFFKKLGVKRIVFPRYLEAETLKKIMDRAGEDLEYEVFILNDGCMFEESHCHVSHQFGGAFCHNPAWRYKLIPPEEGGILETWKLRNLKIAGETFEGNVEEWKRWQWLGIKNGGGYIGAKYPLGMCGLCTLPEYRDMGITSLKIVGREAPLSKKIKSVQLLKKVLDYQREEHLPDEVRDYARRTKGARLLCGSGYMCYER | not soluble
MGHHHHHHSHMGVAGTPGLPESPDKSPVGRKKSKGLATRLSRRRVSCRELGRPDCDGWLLLRKAPGGFMGPRWRRRWFVLKGHTLYWYRQPQDEKAEGLINVSNYSLESGHDQKKKYVFQLTHDVYKPFIFAADTLTDLSMWVRHLITCISKYQSP | soluble
MAIGSKIIKPGGSDPDDFEKSIAQALVELEANSDLKPYLRDLHITRAREIEFGSKKAVIIYVPIPQQKVFQKIQIILVRELEKKFSGKHVVVIAERKILPKPTRKARNPLKQKRPRSRTLTAVYDAILEDLVFPAEIVGKRIRVKLDGSQLVKVHLDKNQQTTIEHKVDTFTSVYKKLTGRDVTFEFPDNYLNV | not soluble
MNVGLSAEVRYHWFREHLVVVGDWHRLSPSERDRLRHQPMPDEAAQSLRVDLSPWSCGMVFSELLGADLTRFGLCYLAPAEVPASDLTRLGRRLREEFPLLDSQVDSGAEGFELVVHGQPEESPALEVGPFADENALIAALLQRPHSLFERGLLRLFHGRCGGRARWGVWLHHLVADADFASVLLARLAVLNADPTTEAAAPEFGFLQQQWRLERQLRERRTRLEDYWSERGEAFRELASLPWAERASHCEDFRLAATPGGGEAALLTRLACALALALASQGATGKVLALTPVSLRSRRGTAVSGCWLNLVPLLLDAATAEDTFERHRLEAFEHSLLPAEAIAERAGLRYADAQVMINVIDQPFHSAGFIHRPTLKSRLPLTLTLVRRDDGGWDASLASRFGRERTLALAAAMAEALRPC | not soluble
MSSLTLTDKVSKMIHQDILSGKLKPGQKLVVAELKERYNVGASPIREALVQLSWNKYVKLEPQKGCWVASISLSELKELFESLRTIGQVLLAKAITNGNENWELNVLTSFHKLNKINLQDAKIEELREWENRYTDFHNSLLEGAQSPIMYQFYQDISHQITRYRHLNNNPQVISETYAQYLEEHEIMMKLTLSRDSEQAIKYLNNHYSKASDLISTYFSA | not soluble
